Laboratory results: patent publication US20240110213A1 (Chr. Hansen HMO GmbH, priority 2020, published 2024)
Where two headings read alike, the source gives them in different places.

What was measured:
E. coli wild-type LacY = E. coli wild-type LacY (Escherichia coli, UniProt P02920); conditions: cited from earlier work
[1] = tested on: bacterial LNT production strains; experiment: Lactose sensitivity of bacterial LNT production strains (OD600 in shaking flasks); type: cell-based, E. coli BL21(DE3); conditions: 20 hours after addition, compared to growth in the absence of lactose
Experimental: The culture medium used to grow the cells for the production of the desired oligosaccharide contained: 3 g/L KH2PO4, 12 g/L K2HPO4, 5 g/L (NH4)SO4, 0.3 g/L citric acid, 0.1 g/L NaCl, 2 g/L MgSO4×7 H2O and 0.015 g/L CaCl2×6 H2O, supplemented with 1 ml/L trace element solution (54.4 g/L ammonium ferric citrate, 9.8 g/L MnCl2×4 H2O, 1.6 g/L […], 1 g/L CuCl2×2 H2O, 1.9 g/L MnCl2×4 H2O, 1.1 g/L Na2MoO4×2 H2O, 1.5 g/L Na2SeO3, 1.5 g/L NiSO4×6 H2O). The pH of the medium was adjusted to 7.0. Lactose was added to the medium in a concentration of 10 mM to 25 mM for synthesis of the desired oligosaccharide by the cells and for testing the cells' sensitivity to lactose.
The bacterial cells were grown at 30° C. and 80% relative humidity with constant agitation at 120 rpm. After 20 h culturing, the optical density of the pre-cultures was determined and the main cultures were inoculated to an OD600 of 0.3 in 25 ml of mineral salts medium. Lactose was added to the culture medium two hours after inoculation of the cultures to final concentrations of 10 or 25 mM. The optical densities (OD600) of the main cultures were determined 20 hours after addition of lactose.

[2] = tested on: E. coli strains expressing different variants of the E. coli lactose permease LacY; type: cell-based
Experimental: Bacterial cell pellets from these cultures were used to inoculate 100 ml minimal medium in shaking flasks. These cultures were incubated for 16 hours at 37° C. in a shaker. The bacterial cells were then sedimented by centrifugation and the resulting pellets were washed twice with fresh cold (4° C.) culture medium and finally resuspended in cold medium. The optical density (OD600) of the cell suspension was set to 5 with cold medium, and the cell suspension is were stored on ice until use for the internalization assay.
Three minutes prior to the transport assay, the bacterial cells were placed in a 37° C. thermo block. […] […] The bacterial cells on the filter were washed twice with 100 mM LiCl and the filter was used subsequently to quantify remaining radioactivity in a Tricarb 2800 scintillation counter (Perkin Elmar, Waltham, MA). To this end, the filters were transferred into scintillation tubes and overlaid with 6 ml Rotiszint eco plus (Roth, Karlsruhe, DE).
In a second set of experiments, the transport assays were started by addition of a mixture of ^14C-labelled lactose and non-radiolabeled lactose to a final concentration of 5 mM lactose and 550,000 dpm. The bacterial cells were collected by filtration after 60 seconds incubation, and washed twice with 3 ml medium containing 5 mM unlabelled lactose.

[3] = tested on: LNT-producing E. coli strain; experiment: Lacto-N-tetraose production in lab scale fermentation (3 litre); type: cell-based
Experimental: The identity of lacto-N-tetraose being produced was determined by multiple reaction monitoring (MRM) using an LC triple-quadrupole MS detection system (Shimadzu LCMS-8050). Precursor ions were selected and analyzed in quadrupole 1, followed by collision-induced fragmentation (CID) with argon and selection of fragment ions in quadrupole 3.
The oligosaccharide LNT in particle-free culture supernatants or cytoplasmic fractions were separated by high performance liquid chromatography (HPLC) using a Waters XBridge Amide HPLC column (3.5 μm, 2.1 […] 50 mm) for both neutral or acidic sugars. Neutral sugars were eluted with isocratic flow of H2O with 0.1% (v/v) ammonium hydroxide. The HPLC system encompasses a Shimadzu Nexera X2 SIL-30ACMP autosampler run at 8° C., a Shimadzu LC-20AD pump, and a Shimadzu CTO-20AC column oven running at 35° C. for elution of neutral sugars and was adjusted to 50° C. for elution of acidic sugars. For the analysis of LNT 1 μl was injected into the instrument. Flow rate was set 0.3 mL/min corresponding to a run time of 5 min. LNT was analyzed in negative ion mode. The mass spectrometer was operated at unit resolution. Collision energy, Q1 and Q3 pre-bias were optimized for each analyte. Quantification methods were established using commercially available standards (Carbosynth and Elicityl).
The impact of reduced lactose import and reduced lactose sensitivity by a bacterial strain on its oligosaccharide production was analyzed in a small-scale fermentation.
In a first set of fermentations each of the bacterial strains was inoculated from a preculture in a fermentation broth containing 20 mM lactose.
In these cultures, the lactose feed (2.5 ml/L/h) was started at the end of the batch phase.

lactose permease genes = experiment: Expression analysis of lactose permease genes by qPCR; type: cell-based, E. coli BL21(DE3); conditions: normalized to gapA, compared with parental strain, FIG. 3
Experimental: A metabolically engineering derivative of E. coli BL21(DE3) which was capable of producing lacto-N-tetraose (LNT) was obtained by genetic engineering.
For expression analyses individual clones obtained from above-referenced mutagenesis approach were inoculated in 25 ml mineral salts medium in shaking flasks. Expression analysis of each clone was performed in 3 replicates. The bacterial cells were grown at 30° C. and a relative humidity of 80% with constant agitation at 120 rpm. After 20 h of culturing, the optical densities of these precultures were determined and the main cultures were seeded to an OD600 of 0.05 in 25 ml of mineral salts medium. The main cultures were cultured for 20 h under the same conditions as the pre-cultures were cultured. Then the bacterial cells were harvested by centrifugation and used for extraction of RNA and subsequent expression analysis by qPCR. The relative quantification of expression levels was performed using the comparative Δ cycle threshold method, the calculated relative expression values were normalized to gapA and compared with the expression level in the parental strain used as control.

Chain of E. coli wild-type LacY (P02920 whole entry): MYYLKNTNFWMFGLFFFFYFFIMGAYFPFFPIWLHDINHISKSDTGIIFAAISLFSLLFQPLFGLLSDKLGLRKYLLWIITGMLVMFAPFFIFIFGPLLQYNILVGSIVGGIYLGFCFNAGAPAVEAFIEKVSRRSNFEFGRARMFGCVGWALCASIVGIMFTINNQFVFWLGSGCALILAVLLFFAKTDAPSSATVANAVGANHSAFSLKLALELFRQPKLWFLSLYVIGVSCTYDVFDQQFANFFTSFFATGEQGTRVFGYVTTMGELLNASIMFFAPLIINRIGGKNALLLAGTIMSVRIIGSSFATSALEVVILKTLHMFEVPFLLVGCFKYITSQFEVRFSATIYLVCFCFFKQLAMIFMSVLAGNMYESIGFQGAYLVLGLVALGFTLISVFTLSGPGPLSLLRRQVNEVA

OC[C@H]1O[C@@H](O[C@@H]2[C@@H](CO)OC(O)(CO)[C@H]2O)[C@H](O)[C@@H](O)[C@H]1O (mixture of isomers) [lactulose]
Km (E. coli wild-type LacY): 240 µM

CS[C@@H]1O[C@H](CO)[C@H](O)[C@H](O)[C@H]1O [TMG, methyl-1-thio-β,D-galactopyranoside, reference compound]
Km (E. coli wild-type LacY): 540 µM

O=C[C@H](O)[C@@H](O)[C@H](O[C@@H]1O[C@H](CO)[C@H](O)[C@H](O)[C@H]1O)[C@H](O)CO [lactose, β-D-galactopyranosyl-(1→4)-D-glucose]
Km (E. coli wild-type LacY): 620 µM

OC[C@H]1O[C@H](OCC2O[C@@H](O)[C@H](O)[C@@H](O)[C@@H]2O)[C@H](O)[C@@H](O)[C@H]1O (stereo partly shown) [melibiose]
Km (E. coli wild-type LacY): 240 µM

B1: LacY(L293R): E. coli LacY variant with leucine at position 293 substituted with arginine (protein, UniProt P02920 1-417, looked up, variant L293R)
Lactose permease: MYYLKNTNFWMFGLFFFFYFFIMGAYFPFFPIWLHDINHISKSDTGIIFAAISLFSLLFQPLFGLLSDKLGLRKYLLWIITGMLVMFAPFFIFIFGPLLQYNILVGSIVGGIYLGFCFNAGAPAVEAFIEKVSRRSNFEFGRARMFGCVGWALCASIVGIMFTINNQFVFWLGSGCALILAVLLFFAKTDAPSSATVANAVGANHSAFSLKLALELFRQPKLWFLSLYVIGVSCTYDVFDQQFANFFTSFFATGEQGTRVFGYVTTMGELLNASIMFFAPLIINRIGGKNALRLAGTIMSVRIIGSSFATSALEVVILKTLHMFEVPFLLVGCFKYITSQFEVRFSATIYLVCFCFFKQLAMIFMSVLAGNMYESIGFQGAYLVLGLVALGFTLISVFTLSGPGPLSLLRRQVNEVA
growth (OD600) ([1]; 10 mM lactose): not reduced | growth (OD600) ([1]; 25 mM lactose): not reduced | lactose internalization (radioactivity incorporated) ([2]; exogenous lactose 0.5 mM, 30 seconds, FIG. 5A): reduced but detectable | lactose internalization (radioactivity incorporated) ([2]; exogenous lactose 5 mM, 60 seconds, FIG. 5B): reduced but detectable | growth kinetics throughout the fermentation ([3]; LNT fermentation, FIG. 7): regular growth kinetics | optical density reached in the culture ([3]; LNT fermentation, FIG. 7, compared to strain bearing LacY): higher | setback in the OC600 and lactose-caused cell lysis ([3]; continuous lactose feed 3.2 ml/L/h, lactose level kept high): without causing any setback in the OC600 and without apparent lactose-caused cell lysis | growth ([3]; fermentation broth containing 20 mM lactose at inoculation): did not display any problems in growth | relative expression (lactose permease genes): at the same level
